The target in this assay is T1, human CD22 on B cells of hCD22-Tg+/+ mCD22-/- transgenic mice (human, UniProt P20273 20-847).
T1 construct: whole, on cells; Expressed from the human CD22 gene with its endogenous regulatory elements
The assay is described as follows: flow cytometry of blood B220+ B cells from hCD22-Tg mice 7 days after mAb injection, stained with anti-mouse IgG1. On the procedure: FIGS. 20A-20B are a set of histograms and scatter plots showing B10 cell-depleting mAbs in hCD22-Tg mice bind B220⁺B cells. Blood lymphocytes isolated from hCD22-Tg mice given either HB22-103, HB22-107, HB22-115 or an isotype-matched (IgG1) mAb (250 μg/mouse) 7 days earlier in FIG. 16 were assessed for relative HB22 mAb binding by immunofluorescence staining with fluorochrome-conjugated anti-mouse IgG1 isotype-specific antibody. […] Bars indicate means, with significant differences between group means indicated: **, p<0.01; ***, p<0.001.
A general note: A flow cytometer gives signals particle by particle.

B1: HB22-107 (antibody, V domains shown)
VH: DVKLVESGEGLVKPGGSLKLSCAASGFTFSSYAMSWVRQTPEKRLEWVAYITSGGDYIYYADTVKGRFTISRDDARNTLYLQMSSLKSEDTAMYYCTRDQGYYYDGRPTWFAYWGQGTLVTVSA
VL: DIVMIQSPSSLAMSVGQKVTMRCKSSQSLLSSSNQKNYLAWYQQKPGQSPKLLVYFASTRESGVPDRFIGSGSGTDFTLTINSVQAEDLADYFCQQHYSTPLTFGAGTKLELK
notes: Mouse IgG1 monoclonal antibody to human CD22; also called HB22-107 mAb; HB22 mAb
As for B1, the binding result is recorded as “binds”.

B2: HB22-103 (antibody, V domains shown)
VH: QVQLQQPGTELVKPGASVKLSCKASGYTFTSYWMHWVKQRPGQGLEWIGMIHPNRGTTNYNEKFKSKATLTVDKSSSTAYMQLSSLTSEDSAVYYCARYYDYDPDYWGQGTTLTVSS
VL: DIVLTQSPATLSVTPGDSVSLSCRASQSISNNLHWFQQKSHESPRLLIKYGYQSISGIPSRFSGSGSGTDFTLSINSVETEDFGMYFCQQSYRWPYTFGGGTKLEIK
notes: also called HB22-103 mAb; HB22 mAb
On to B2, for which the binding result was “binds”.

B3: HB22-115 (antibody, V domains shown)
VH: QVQLQQPGAELVKPGASVKLSCKASGYTFTSYWMHWVKQRPGQGLEWIGMIHPNSGSTNYSEKFKSKATLTVDKSSSTAYMQLSSLTSEDSAVYYCARYYDYDPDYWGQGTTLTVSS
VL: DIVLTQSPATLSVTPGDSVTLSCRASQGISNNLHWYQQQSHESPRLLIKFTSQSVSGIPSRFSGSGSGTDFTLSVNSVETEDFGMYFCQQSNRWPYTFGGGTKLEIK
notes: Mouse IgG1 monoclonal antibody to human CD22; also called HB22-115 mAb; HB22 mAb
For B3, the binding result was “binds”.
